Measured values taken from patent publication US20150285810A1 (LUDWIG INSTITUTE FOR CANCER RESEARCH, published 2015).

T1: iASPP (1-240)-GST (human, UniProt Q8WUF5 1-240)
T1 construct: Expressed in bacteria, purified on glutathione beads; also called N-terminal iASPP; not shown: GST tag from pGEX vector (BamHI/EcoRI cloning)
T1 sequence: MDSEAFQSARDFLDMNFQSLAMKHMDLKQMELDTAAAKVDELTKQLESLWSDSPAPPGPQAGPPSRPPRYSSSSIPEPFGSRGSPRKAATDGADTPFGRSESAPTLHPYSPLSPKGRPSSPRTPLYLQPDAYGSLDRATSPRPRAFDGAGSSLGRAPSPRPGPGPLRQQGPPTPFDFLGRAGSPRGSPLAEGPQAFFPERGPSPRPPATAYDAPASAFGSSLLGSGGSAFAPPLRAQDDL

T2: iASPP (249-482)-GST (human, UniProt Q8WUF5 249-482)
T2 construct: not shown: GST tag from pGEX vector
T2 sequence: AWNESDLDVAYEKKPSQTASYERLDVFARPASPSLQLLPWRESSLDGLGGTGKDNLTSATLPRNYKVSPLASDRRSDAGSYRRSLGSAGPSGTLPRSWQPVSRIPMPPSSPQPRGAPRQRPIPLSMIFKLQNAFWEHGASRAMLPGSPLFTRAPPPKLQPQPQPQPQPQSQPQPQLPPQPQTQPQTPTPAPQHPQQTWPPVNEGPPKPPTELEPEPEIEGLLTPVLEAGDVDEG

B1: iASPP (625-828)-His (other)
chain: LNPLVLLLDAALTGELEVVQQAVKEMNDPSQPNEEGITALHNAICGANYSIVDFLITAGANVNSPDSHGWTPLHCAASCNDTVICMALVQHGAAIFATTLSDGATAFEKCDPYREGYADCATYLADVEQSMGLMNSGAVYALWDYSAEFGDELSFREGESVTVLRRDGPEETDWWWAALHGQEGYVPRNYFGLFPRVKPQRSKVHHHHHH
notes: Contains the ankyrin repeats and SH3 domain; FITC-labelled in the nuclear import assay; also called C-terminal iASPP

Experiments:
iASPP (1-240)-GST [1] = biological target: T1, iASPP (1-240)-GST; assay: in vitro translated iASPP(625-828)-V5 pulled down with iASPP(1-240)-GST glutathione beads
iASPP (1-240)-GST [2] = biological target: T1, iASPP (1-240)-GST; assay: in vitro translated iASPP(625-828)-V5 mutant pulled down with iASPP(1-240)-GST glutathione beads
[3] = biological target: p53, transfected (co-transfected in H1299 cells; transfected in Saos-2 cells) (UniProt P04637 1-393); assay: cell-based or functional assay
iASPP (1-240)-GST [4] = biological target: T1, iASPP (1-240)-GST; assay: glutathione bead pull-down of purified proteins, anti-His blot
iASPP (625-828)-His = biological target: B1; assay: as above
iASPP (249-482)-GST = biological target: T2, iASPP (249-482)-GST; assay: as above

p53, transfected (co-transfected in H1299 cells; transfected in Saos-2 cells), sequence (P04637 whole entry): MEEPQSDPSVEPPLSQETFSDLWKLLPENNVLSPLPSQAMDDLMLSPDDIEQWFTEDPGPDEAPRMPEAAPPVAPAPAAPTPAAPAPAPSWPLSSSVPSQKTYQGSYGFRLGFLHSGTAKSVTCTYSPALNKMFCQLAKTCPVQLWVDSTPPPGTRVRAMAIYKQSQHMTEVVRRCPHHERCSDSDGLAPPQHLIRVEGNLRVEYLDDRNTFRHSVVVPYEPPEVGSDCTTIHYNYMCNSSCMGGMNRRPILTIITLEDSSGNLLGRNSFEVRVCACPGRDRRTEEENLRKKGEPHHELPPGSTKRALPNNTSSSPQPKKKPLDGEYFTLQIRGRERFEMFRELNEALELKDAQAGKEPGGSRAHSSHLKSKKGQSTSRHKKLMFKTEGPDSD

| Binder | binding result (iASPP (1-240)-GST [2]) | other results |
| --- | --- | --- |
| iASPP (625-828)-V5, wild type, in vitro translated (other, not shown: V5 tag) LNPLVLLLDAALTGELEVVQQAVKEMNDPSQPNEEGITALHNAICGANYSIVDFLITAGANVNSPDSHGWTPLHCAASCNDTVICMALVQHGAAIFATTLSDGATAFEKCDPYREGYADCATYLADVEQSMGLMNSGAVYALWDYSAEFGDELSFREGESVTVLRRDGPEETDWWWAALHGQEGYVPRNYFGLFPRVKPQRSKV | – | binding result (iASPP (1-240)-GST [1]): binds |
| iASPP(625-828)/T722A/Y814A (other, In vitro translated; not shown: V5 tag) LNPLVLLLDAALTGELEVVQQAVKEMNDPSQPNEEGITALHNAICGANYSIVDFLITAGANVNSPDSHGWTPLHCAASCNDTVICMALVQHGAAIFAATLSDGATAFEKCDPYREGYADCATYLADVEQSMGLMNSGAVYALWDYSAEFGDELSFREGESVTVLRRDGPEETDWWWAALHGQEGYVPRNAFGLFPRVKPQRSKV | binds | – |
| iASPP(625-828)/N813A (other, In vitro translated; not shown: V5 tag) LNPLVLLLDAALTGELEVVQQAVKEMNDPSQPNEEGITALHNAICGANYSIVDFLITAGANVNSPDSHGWTPLHCAASCNDTVICMALVQHGAAIFATTLSDGATAFEKCDPYREGYADCATYLADVEQSMGLMNSGAVYALWDYSAEFGDELSFREGESVTVLRRDGPEETDWWWAALHGQEGYVPRAYFGLFPRVKPQRSKV | binds | – |
| iASPP(625-828)/L724A (other, In vitro translated; not shown: V5 tag) LNPLVLLLDAALTGELEVVQQAVKEMNDPSQPNEEGITALHNAICGANYSIVDFLITAGANVNSPDSHGWTPLHCAASCNDTVICMALVQHGAAIFATTASDGATAFEKCDPYREGYADCATYLADVEQSMGLMNSGAVYALWDYSAEFGDELSFREGESVTVLRRDGPEETDWWWAALHGQEGYVPRNYFGLFPRVKPQRSKV | binds | – |
| iASPP(625-828)/Y814A (other, In vitro translated; not shown: V5 tag) LNPLVLLLDAALTGELEVVQQAVKEMNDPSQPNEEGITALHNAICGANYSIVDFLITAGANVNSPDSHGWTPLHCAASCNDTVICMALVQHGAAIFATTLSDGATAFEKCDPYREGYADCATYLADVEQSMGLMNSGAVYALWDYSAEFGDELSFREGESVTVLRRDGPEETDWWWAALHGQEGYVPRNAFGLFPRVKPQRSKV | binds | – |
| iASPP(625-828)/T722A/N813A (other, In vitro translated; not shown: V5 tag) LNPLVLLLDAALTGELEVVQQAVKEMNDPSQPNEEGITALHNAICGANYSIVDFLITAGANVNSPDSHGWTPLHCAASCNDTVICMALVQHGAAIFAATLSDGATAFEKCDPYREGYADCATYLADVEQSMGLMNSGAVYALWDYSAEFGDELSFREGESVTVLRRDGPEETDWWWAALHGQEGYVPRAYFGLFPRVKPQRSKV | binds | – |
| iASPP(625-828)/T722A (other, In vitro translated; not shown: V5 tag) LNPLVLLLDAALTGELEVVQQAVKEMNDPSQPNEEGITALHNAICGANYSIVDFLITAGANVNSPDSHGWTPLHCAASCNDTVICMALVQHGAAIFAATLSDGATAFEKCDPYREGYADCATYLADVEQSMGLMNSGAVYALWDYSAEFGDELSFREGESVTVLRRDGPEETDWWWAALHGQEGYVPRNYFGLFPRVKPQRSKV | binds | – |
| iASPP(S84D/S113D)-V5 (other, not shown: small tags and cut ends) MDSEAFQSARDFLDMNFQSLAMKHMDLKQMELDTAAAKVDELTKQLESLWSDSPAPPGPQAGPPSRPPRYSSSSIPEPFGSRGDPRKAATDGADTPFGRSESAPTLHPYSPLDPKGRPSSPRTPLYLQPDAYGSLDRATSPRPRAFDGAGSSLGRAPSPRPGPGPLRQQGPPTPFDFLGRAGSPRGSPLAEGPQAFFPERGPSPRPPATAYDAPASAFGSSLLGSGGSAFAPPLRAQDDLTLRRRPPKAWNESDLDVAYEKKPSQTASYERLDVFARPASPSLQLLPWRESSLDGLGGTGKDNLTSATLPRNYKVSPLASDRRSDAGSYRRSLGSAGPSGTLPRSWQPVSRIPMPPSSPQPRGAPRQRPIPLSMIFKLQNAFWEHGASRAMLPGSPLFTRAPPPKLQPQPQPQPQPQSQPQPQLPPQPQTQPQTPTPAPQHPQQTWPPVNEGPPKPPTELEPEPEIEGLLTPVLEAGDVDEGPVARPLSPTRLQPALPPEAQSVPELEEVARVLAEIPRPLKRRGSMEQAPAVALPPTHKKQYQQIISRLFHRHGGPGPGGPEPELSPITEGSEARAGPPAPAPPAPIPPPAPSQSSPPEQPQSMEMRSVLRKAGSPRKARRARLNPLVLLLDAALTGELEVVQQAVKEMNDPSQPNEEGITALHNAICGANYSIVDFLITAGANVNSPDSHGWTPLHCAASCNDTVICMALVQHGAAIFATTLSDGATAFEKCDPYREGYADCATYLADVEQSMGLMNSGAVYALWDYSAEFGDELSFREGESVTVLRRDGPEETDWWWAALHGQEGYVPRNYFGLFPRVKPQRSKV | – | inhibition of p53 mediated transcription (PIG3 reporter, Saos-2 cells), against wild type iASPP [3]: ~3 fold |
| ASPP2 (905-1128)-His (other, FITC-labelled in the nuclear import assay; also called C-terminus of ASPP2) RTNLRKTGSERIAHGMRVKFNPLALLLDSSLEGEFDLVQRIIYEVDDPSLPNDEGITALHNAVCAGHTEIVKFLVQFGVNVNAADSDGWTPLHCAASCNNVQVCKFLVESGAAVFAMTYSDMQTAADKCEEMEEGYTQCSQFLYGVQEKMGIMNKGVIYALWDYEPQNDDELPMKEGDCMTIIHREDEDEIEWWWARLNDKEGYVPRNLLGLYPRIKPRQRSLAHHHHHH | – | binding result (iASPP (1-240)-GST [4]): no binding (tested: 10 µg/ml each) |
| iASPP (1-240) S84D/S113D (other, also called iASPP phosphor-mimic mutant; not shown: GST tag from pGEX vector) MDSEAFQSARDFLDMNFQSLAMKHMDLKQMELDTAAAKVDELTKQLESLWSDSPAPPGPQAGPPSRPPRYSSSSIPEPFGSRGDPRKAATDGADTPFGRSESAPTLHPYSPLDPKGRPSSPRTPLYLQPDAYGSLDRATSPRPRAFDGAGSSLGRAPSPRPGPGPLRQQGPPTPFDFLGRAGSPRGSPLAEGPQAFFPERGPSPRPPATAYDAPASAFGSSLLGSGGSAFAPPLRAQDDL | – | binding result (iASPP (625-828)-His): no binding (tested: 10 µg/ml each) |
| B1 | – | binding result (iASPP (249-482)-GST): no binding (tested: 10 µg/ml each) |
